In this assay the target is T1, HLA-A*01:01 (human).
T1 construct: MHC class I monomer first loaded with a UV-sensitive peptide (not identified) that is cleaved by UV irradiation and exchanged for the tested peptide; captured on streptavidin plates, detected with anti-β2m; also called peptide-receptive MHC molecules
In words: UV-ligand exchange, anti-b2m ELISA. The procedure, abridged: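 Peptide–MHC complexes made by UV-ligand exchange of a UV-cleavable peptide; exchange yield measured by ELISA on streptavidin-coated plates, samples diluted 100-fold, 1 h 37 °C. Detection with 2 ug/ml HRP anti-β2m, TMB, A450; refolded HLA-A*02:01/MLA-001 monomer standards 15-500 ng/ml.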
On the technique in general: An ELISA detects its analyte on a solid surface through an enzyme-linked reagent.

QVWGGQPVY gave a peptide exchange yield of 10 to 20%. LTEKSHIRY gave a peptide exchange yield of 50 to 75%.

FTTQDELLVY came in with a peptide exchange yield of 50 to 75%. NLDPNKIY yielded a peptide exchange yield of 10 to 20%. The value for ASDVDTLLK was 50 to 75%. The value for ELCPLPGTSAY was 20 to 50%; that for SSDIVALGGFLY was 50 to 75%.

Turning to TQHFVQENY, the peptide exchange yield was in the range of 20 to 50%. The value for ASDPASSTSCY was 50 to 75%; that for FMVIAGMPLFY was 50 to 75%; that for KSWSQSSSLMY was 50 to 75%.

Molecule IPSFNEMVY gave a peptide exchange yield of 20 to 50%. Turning to ASDDVRIEVGLY, the peptide exchange yield is > 75%. Regarding YTAHVGYSMY, the peptide exchange yield was > 75%.

For WSQSSSLMY, the peptide exchange yield is > 75%. The molecule YTELVEEKY registered a peptide exchange yield of 50 to 75%. ITDEDEDMLSY displayed a peptide exchange yield of 50 to 75%. Molecule ILKGGSGTY had a peptide exchange yield of 20 to 50%.

NSALNPLLY: the peptide exchange yield was > 75%. Turning to VSELVTTGHY, the peptide exchange yield fell in the range of 50 to 75%. The value for STEERRLNY was 50 to 75%; that for EMEQQSQEY was > 75%; that for VTDSTTKIAY was 50 to 75%. QLDSAVKNLY displayed a peptide exchange yield of 50 to 75%.

As to YYDLVESTF, the peptide exchange yield was in the range of 10 to 20%. The value for TSRAANIPGY was 10 to 20%; that for RIEAIRAEY was 20 to 50%. In the case of LMEKEDYHSLY, the peptide exchange yield is 50 to 75%.

Molecule QSLPEFGLTY showed a peptide exchange yield of 20 to 50%. For the molecule MTEKFLFLY, the peptide exchange yield was > 75%. In turn, TTQDELLVY displayed a peptide exchange yield of 50 to 75%. The value for RSDPGGGGLAYAAY was > 75%; that for YLEDRPLSQLY was > 75%; that for ATEGDVLNY was 50 to 75%. Turning to FTSDTGLEY, the peptide exchange yield was > 75%. RFRSITQSYY: the peptide exchange yield is 10 to 20%. LPDPNVQKY had a peptide exchange yield of 20 to 50%.

For the molecule TSEISQNALMYY, the peptide exchange yield lay in the range of 50 to 75%. YEPATMEQY: the peptide exchange yield was in the range of 20 to 50%. Take SSDFDPLVY: the peptide exchange yield was > 75%.

With LTDSTTRTTY, the peptide exchange yield lay within 50 to 75%.

NSAINPLIY: the peptide exchange yield is > 75%.

The molecule GSFSIQHTY showed a peptide exchange yield of 20 to 50%.

With ETEPERHLGSY, the peptide exchange yield lay in the range of 50 to 75%. The value for EVDIHTIHY was 50 to 75%; that for FTDYELKAY was > 75%; that for STDSASYY was > 75%. For the molecule PPDHAVGRTKY, the peptide exchange yield lay in the range of 20 to 50%. Molecule NVDQNQNSY returned a peptide exchange yield of 50 to 75%. HSDLLEDSKY showed a peptide exchange yield of 50 to 75%. In the case of FSEPFHLIVSY, the peptide exchange yield is > 75%.

VTEYAEEIYQY displayed a peptide exchange yield of 50 to 75%.

Regarding TSDQLGYSY, the peptide exchange yield was 50 to 75%. As to ARDPITFSF, the peptide exchange yield was in the range of 20 to 50%.

Take YLENSASWY: the peptide exchange yield is > 75%. Molecule QTDVERIKDTY returned a peptide exchange yield of 50 to 75%. The molecule YYYDTHTNTY had a peptide exchange yield of 10 to 20%.

Consider GSNPARYEF, for which the peptide exchange yield is 20 to 50%. YSDLHTPGRY: the peptide exchange yield lay in the range of 50 to 75%. For the molecule ASDLEPRELLSY, the peptide exchange yield was 50 to 75%. In turn, FTDSQGNDIK displayed a peptide exchange yield of 50 to 75%.

Regarding QSLPEFGLTYY, the peptide exchange yield fell in the range of 20 to 50%. In the case of TSEISQNALMY, the peptide exchange yield is > 75%. The value for SANALILTY was 20 to 50%; that for QVPLDCVLY was 20 to 50%; that for WSDGVPLLY was > 75%.
